Assays:
[1] = target: M. sp. JS623 type IV-B Csf2 (Cas7-like backbone subunit), N-terminally Strep-tagged (Mycobacterium sp. JS623); assay: cryo-EM structure
[2] = target: M. sp. JS623 type IV-B Csf4 (Cas11 small subunit) (Mycobacterium sp. JS623); assay: cryo-EM structure

| Substance | stoichiometry N [1] | stoichiometry N [2] |
| --- | --- | --- |
| M. sp. JS623 type IV-B Csf2 (Cas7-like backbone subunit), N-terminally Strep-tagged (natural protein) | 7 |  |
| M. sp. JS623 type IV-B Csf4 (Cas11 small subunit) (natural protein) |  | 5 |

Reference: paper doi:10.1101/2020.07.31.231399
